These results are taken from patent US20090209022A1 (AstraZeneca / MedImmune, published 2009).

The data set deals with the molecule itself. Kind of data set: X-ray crystallography, partial model and electron density map.

B1: H. influenzae pyrH UMP kinase (HI-1065), SeMet labelled, expressed from pSM145 (enzyme)
chain: GQPIYKRILLKLSGEALQGEDGLGIDPAILDRMAVEIKELVEMGVEVSVVLGGGNLFRGAKLAKAGMNRVVGDHMGMLATVMNGLAMRDSLFRADVNAKLMSAFQLNGICDTYNWSEAIKMLREKRVVIFSAGTGNPFFTTDSTACLRGIEIEADVVLKATKVDGVYDCDPAKNPDAKLYKNLSYAEVIDKELKVMDLSAFTLARDHGMPIRVFNMGKPGALRQVVTGTEEGTTIC
modifications: all methionines substituted with seleno-methionine (SeMet) in the crystallised protein
notes: Homohexamer (trimer of dimers); The crystal asymmetric unit holds eight chains: one hexamer and one dimer that gives a hexamer by crystallographic symmetry; The crystal also holds GTP (modelled as GDP) and phosphate
For the protein B1, the binding result is on record as “binds”.
